According to paper doi:10.1101/2022.09.21.508839:
Several values for one entry are separate records, joined by “and”; a condition that tells them apart may be missing. Equal values may be shown once.

Molecular target: F-type ATP synthase from bovine heart mitochondria (Bos taurus (bovine))
Test: native gel or EMSA

- stoichiometry N: 2 and 4
Substance: F-type ATP synthase from bovine heart mitochondria (complex)
